# In US20060141451A1 (ORTHO MCNEIL PHARMACEUTICAL, published 2006):
# No end group written: not given here.
# Assays:
# [1] = target: T1, guinea pig proteinase-activated receptor 4 (PAR-4) (guinea pig (Cavia porcellus)); test: cell-based or functional assay
# T1 chain: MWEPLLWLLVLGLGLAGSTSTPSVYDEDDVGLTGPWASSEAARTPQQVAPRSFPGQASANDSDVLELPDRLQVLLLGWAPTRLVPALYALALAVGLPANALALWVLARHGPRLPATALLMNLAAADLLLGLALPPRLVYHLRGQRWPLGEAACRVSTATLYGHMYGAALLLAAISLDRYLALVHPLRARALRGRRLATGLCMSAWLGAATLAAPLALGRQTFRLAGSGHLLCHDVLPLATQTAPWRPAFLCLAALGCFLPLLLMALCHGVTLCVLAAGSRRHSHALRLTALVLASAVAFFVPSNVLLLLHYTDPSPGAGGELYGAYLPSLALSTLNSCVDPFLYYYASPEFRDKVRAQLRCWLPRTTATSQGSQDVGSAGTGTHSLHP
# [2] = target: T2, human PAR-4 (human, UniProt Q96RI0 48-385); test: cell-based or functional assay
# T2 sequence (looked up): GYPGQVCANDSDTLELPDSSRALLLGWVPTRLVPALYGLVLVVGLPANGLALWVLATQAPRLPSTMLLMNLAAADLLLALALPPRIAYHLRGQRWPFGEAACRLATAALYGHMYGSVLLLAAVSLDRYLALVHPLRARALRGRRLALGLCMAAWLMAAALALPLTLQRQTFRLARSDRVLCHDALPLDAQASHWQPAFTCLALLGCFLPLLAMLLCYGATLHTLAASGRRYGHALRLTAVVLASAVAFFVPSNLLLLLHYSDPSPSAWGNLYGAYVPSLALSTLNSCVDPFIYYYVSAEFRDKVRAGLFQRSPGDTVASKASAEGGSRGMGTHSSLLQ
binder,measurement,setting,value
SFPGQA-NH2 [guinea pig PAR-4 activating peptide SFPGQA-NH2],"aggregation of guinea pig gel filtered platelets, EC50",[1],174 µM
same,"aggregation of human gel filtered platelets, EC50",[2],140 µM
